Details in all cases: both partners purified
Assay [1] concerns the target T1, TEAD2 (A217–D447), YAP-binding domain, His-tagged (human, UniProt Q15562 217-447).
T1 construct: The construct has a TEV site after the His tag; The tag is kept in the TR-FRET/HTRF assays (anti-His detection); Treated with 2.5% hydroxylamine; source: E. coli BL21 (DE3), autoinduction, purified (hydroxylamine treated, size exclusion); not shown: His6, N-terminal, kept
Put plainly: 1D 19F NMR of the free peptides; 20 μM S2, 20 μM S3 and 10 μM TEAD2 in PBS (100% D2O), pH 7.4, 298 K; displacement by addition of 55 μM compound 2, GNE-7883 or pepYAP.

Assay [2] concerns the target T2, TEAD3 (Q216–D435), YAP-binding domain, His-tagged (human, UniProt Q99594 216-435).
T2 construct: The construct has a TEV site after the His tag; treated with 2.5% hydroxylamine; source: E. coli BL21 (DE3), autoinduction, purified (hydroxylamine treated, size exclusion); not shown: His6, N-terminal, kept
Put plainly: AlphaScreen or HTRF; TEAD–YAP TR-FRET: His-tagged TEAD (YAP-binding domain) with europium anti-His antibody, preincubated 30 min with small molecules; biotinylated YAP peptide (50–100) with streptavidin-XL665; 60 min, room temperature; read at 665 and 615 nm. (In general: Alpha assays give light when donor and acceptor beads are brought close together.)

The target in assay [3] is T1, TEAD2 (A217–D447), YAP-binding domain, …. The assay is described as follows: AlphaScreen or HTRF; site 2/site 3-specific HTRF: His-tagged TEAD preincubated 30 min with compounds in 50 mM HEPES pH 7.2, 100 mM NaCl, 0.01% Tween-20, 0.5 mg/ml bovine gamma globulin, 1 mM dithiothreitol; biotinylated probe added for 60 min; europium anti-His and streptavidin-XL665; room temperature.

Consider five molecules from PMC10293011 (Nature Cancer, 2023).

Non-standard residues stand in square brackets, D forms with d. No end group written: not given here. Phe(3,5-F2) = N[C@@H](Cc1cc(F)cc(F)c1)C(=O)O

T1 sequence (Q15562 217-447): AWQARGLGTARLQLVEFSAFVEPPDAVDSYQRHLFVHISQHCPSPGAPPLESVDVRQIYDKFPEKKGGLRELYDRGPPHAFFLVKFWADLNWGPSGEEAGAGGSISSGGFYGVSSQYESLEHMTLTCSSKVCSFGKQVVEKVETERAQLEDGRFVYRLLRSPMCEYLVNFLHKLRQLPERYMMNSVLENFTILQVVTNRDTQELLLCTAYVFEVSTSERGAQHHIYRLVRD
T2 sequence (Q99594 216-435): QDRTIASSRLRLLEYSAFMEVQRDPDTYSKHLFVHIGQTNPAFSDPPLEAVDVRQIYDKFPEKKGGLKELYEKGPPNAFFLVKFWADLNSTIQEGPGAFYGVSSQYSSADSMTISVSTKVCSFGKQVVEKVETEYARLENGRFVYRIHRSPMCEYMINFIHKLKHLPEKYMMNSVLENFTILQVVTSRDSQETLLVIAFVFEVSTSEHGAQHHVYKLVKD

B1: S2, 19F-labeled YAP peptide (residues 59–81) (peptide)
peptide: Ac-GDSETDLEAL[Phe(3,5-F2)]NAVMNPKTANVP
modifications: not fully specified
notes: YAP residues 59–81; Phe69 is 3,5-difluoro-phenylalanine; also called peptide S2; source: synthetic peptide, bought: ABclonal
Turning to B1, the binding result in assay [1] is on record as “binds”.

B2: S3, 19F-labeled YAP peptide (residues 80–100) (peptide)
peptide: Ac-VPQTVPMRLRKLPDS[Phe(3,5-F2)]FKPPE
modifications: not fully specified
notes: YAP residues 80–100; Phe95 is 3,5-difluoro-phenylalanine; also called peptide S3; source: synthetic peptide, bought: ABclonal
In the case of B2, the binding result in assay [1] was “binds”.

B3: biotinylated YAP peptide (amino acids 50–100) (peptide, UniProt P46937 50-100, looked up)
peptide: AGHQIVHVRGDSETDLEALFNAVMNPKTANVPQTVPMRLRKLPDSFFKPPE
modifications: biotin (position not given)
notes: YAP (Yes-associated protein), amino acids 50–100; Held by streptavidin-XL665 in the assay; also called YAP 50–100
Regarding B3, in assay [2], the binding result is reported as “binds”.

B4: biotinylated mouse vestigial-like protein 1 peptide, amino acids 20–51 (site 2 probe) (peptide, UniProt Q99NC0 20-51, looked up)
peptide: KTEWNAGSVIFTYFEGDINSMVDEHFSRALRN
modifications: also: biotin, position not given here
notes: mouse vestigial-like protein 1 (Vgll1), amino acids 20–51; also called mVgll1; Vgll1 peptide
With B4, the binding result in assay [3] was “binds”.

B5: pepYAP, YAP peptide (amino acids 60–100) (peptide)
peptide: DSETDLEALFNAVMNPKTANVPQTVPMRLRKLPDSFFKPPE
notes: source: synthetic peptide, bought: ABclonal
As to B5, the binding result in assay [1] is “binds”.
